Publication PMC3477478

Substrate: CC(=O)O
Assay: purified protein
Details: 10 mM ATP, 0.47 mM HSCoA, 10 mM MgCl2, 120 mM hydroxylamine, 10 mM reduced glutathione, Tris/HCl pH 7.5, 37 °C, apparent Km

B1: K. stuttgartiensis ACS (kustc1128), AMP-forming acetyl-CoA synthetase (Candidatus Kuenenia stuttgartensis) (protein)
chain: MNKTEIINKHPEAFNLICYEDQHKNFSWETVKKELGVGGNKVNIAYEAIDKHATTWRKNKVALYWEGSDGTHLKYTFQELKILSDKCANMLQSLGVGKGDRVFLFLPRLPELFINMIAIAKLGAISGPMFSAFGPDAVRDRLQNSEAKVLITTPELKERVDAVLWELPKLERIVLVSVKEDYELEEGNVCYKTLMKDAPERFEMEWMDMEDPLYLLYTSGTTGKPKGITHVHNDMISYYITTKWSLDLRDDDIYWCTADPGWVTGTVYGMWGPWLNGVSMYIYDGRFDVNKWYEAIQSYKITVWYTAPTALRMLMKSGDYLVAQYDLESLRYICSVGEPLNPEVIKWGMNVYNLPIHDTWWQTETGSIMIANYPCIPIKPGSMGKPFPGIKAAIIDSEGNELPDGHHGILALKPGWPSMLRKVWGDEGRFNEYFNITGWYTTGDTAYKDEEGYFWFVGRADDVINTSGHRVGPFEVESALLEHRAVAEAGVIGKPDPERGEIIKAFIALKEGFKPSSELGEEIKKFIKHHLAAHAYPREIEFCENLPKTRSGKIMRRLLKAKDLGLPTGDISTLED
**Q.** How did the Km turn out when B1 was run?
**A.** Its Km is 200 µM.
